# In the DeepSol protein solubility set:
# Test: soluble on expression in E. coli; label from the status in PepcDB or PDB records
row,Sequence,soluble on expression in E. coli
1,MGSDKIHHHHHHMIHEQDVQKLLNYITSHFGVDPERWFHPEGYQSIALAILDSIYSTGNRYTGVLNLVNRYCGLRANEGSHPEADTATDLIETFYRWGGVDEFVLKTNNRWRTSSKIHAPYKAYAALEAAKVLAGHSIESISDVVGRFDSRESREHSDIAREWLMITGQSSALTWSYFLMLVGVPGVKADRMIVRFVTHVLERPKEISRHEASRLIEEVADIMCVNYIYLDHTIWRFQSGRPYLQEDSSPFE,not soluble
2,MSLADPDGGERSRRAARAASLSSSSRPTSVSAKQPCRVKFICRVLRPVVQGFLTSLGYRAAIGRAPSARQLRDYLLVPEVTRLHAENYGFYGRRKMHALMRRQGWVIGRDQTERLMRLAGVRGVRKSKRVLTTHSDKTTVLPADLVNRRFTAPAPRRLWVCDVTYVATWSGFAYVAFVTDVYSRRIVGWNVAATLRSEILPMQALDMAAWGAGGDLTSLIHHADHGSNSEGHHHHHH,soluble
3,NGQSDVKHIGILQYVEHPSLTATRKGFIKELAKEGYKDGKNIKIEYKNAQGDQSNIQSISEKLIKDNKLVLGIATPAAQSLTTVSTETPILFTAVTDPVSAELVKSMKKPEGLATGTSDMSPIKKQVSLLRKVMPKVKRVGIMYTTSERNSEVQVKQAKKIFQEAGIKTSVKGISSTNDVQDTAKSLMSKTEVIFVPTDNIIASSVTLLGNLSKELKVPVVGGSADMVPSGLLFSYGADYEALGRQTARQAVKILKGKDVAKVPSEYPQNLKVVVNEDMAKELGIDVSSIK,not soluble
4,MTLLTVKHLTITDTWTDQPLVSDVNFTLTKGETLGVIGESGSGKSITCKSIIGLNPERLGVTGEIIFDGTSMLSLSESQLKKYRGKDIAMVMQQGSRAFDPSTTVGKQMFETMKVHTSMSTQEIEKTLIEYMDYLSLKDPKRILKSYPYMLSGGMLQRLMIALALALKPKLIIADEPTTALDTITQYDVLEAFIDIKKHFDCAMIFISHDLTVINKIADRVVVMKNGQLIEQGTRESVLHHPEHVYTKYLLSTKKKINDHFKHVMRGDVHD,not soluble
5,MGSDKIHHHHHHMNINISGKRVLVTASTEGIGRGIAEAFLREGCNVVISSRNKDKIEKAILEMRKIGPSVWGFPADLTDFKSLEELVGYALKIMNGIDILVVNSGNPPKEPSYFFENTMEDWEYATKLYLLSAIKLTNLVYQYMKAQRWGRIFFLSSWTIKEPQRIFSLADITRAPLIQMAKLLSKELGEYNVNVNVILMGSFETEGAKRSLKKYAEKVGQPLDVIWKREVISQIPIGRTGDIKNELGSLLVFLSSDYAGYINGTSILIDGGMSRAI,not soluble
6,MGRKISVIIPTHYRNDLLPTAIESVARQDYEPVELIVVDDSGEGYAEPVLSEYDEVIDRPIIKEENEGWQAAYTTGIEQSTGEYIQFLDDDDYLYETKLKKTANVLDQNPEVGVSYCGVVRGDEGDFYPKQEVSGHFLEPALRFQTFPMWTGSMLMEREVLCDCLPMAGMGEEDDLDIELGDTDLKIELAKRTKADYVDECLTFYRQEGNKLWTGKRRFKKILQNIRHQKDIYNQYPEIRRDLLAEWYERQGRNYLNEQIWSAQAIQCFIKSAYYERKQKFPRIIETLAAILGRPGVMSAVRVKRTLLDGLEHHHHHH,not soluble
